Measured values reported in the RNAGym collection of RNA variant scans (doi:10.1101/gr.219683.116).

B1: mRNA-splicing (parent)
chain: AGUUGCUGCUGGGAGCUCCAGCACAGUGAAAUGGACAGAAGGGCAGAGCAA

Variants of: B1
Test: exon inclusion enrichment index; higher = more inclusion; WT1 exon 5 minigene, HEK293

Point of comparison: G2U U3A G5C C6U G8C C9U U10C, “exon inclusion enrichment index” value 3.36. Against it:
- G2A U3C — lower, 0.0113
- G2A U3G — lower, 0.0392
- G2A U3A — lower, 0.0502
- G2A U3A G5A C6U U7A G8U C9A — lower, 0.0687
- G2A U3C C6A U7C C9A U10C — lower, 3.17
- G2C U3A C6A U7A C9A U10A — lower, 0.863
- G2U U3A C6A U7A C9A U10A — lower, 1.45
- U4C G5C C6G U7C U10C — higher, 3.81
- U3G C6A U7C C9A U10C — lower, 0.785
- G2C U3G G5A C6U U7A G8U C9A — lower, 0.0859
- G2U U3A G5C C6A U7C G8A U10A — lower, 0.383
- U3A G5A C6G U7G C9A — lower, 0.0155
- U4C G5A C6G U7G C9A — lower, 0.0522
- G2U U3C G5A C6G U7G C9A — lower, 0.0791
- G2A U3A G5U G8U C9U — lower, 0.155
- U3A U4G G5A C6G U7G C9A — lower, 0.018
- G2C U3G C6A U7A C9A U10A — lower, 1.14
- G2C G5C C6U G8C C9U U10C — lower, 1.41
- U4A G5U C6A U7C G8A U10A — lower, 0.0592
- U4G — lower, 0.0792
- U4A — lower, 0.00347
- U4C — lower, 0.365
- G2C U3C G5C C6G U7C U10C — higher, 3.45
- U3A U4G C6A U7C C9A U10C — lower, 1.54
- G2A G5A U7C G8A U10C — higher, 3.39
- U3A U4G G5C C6U G8C C9U U10C — lower, 0.155
- U4C U7C G8A U10C — higher, 3.91
- G2A U3A G5C C6U G8C C9U U10C — lower, 1.94
- G2U G5A C6U U7A G8U C9A — lower, 0.188
- U4A G5C C6G U7G C9A — lower, 0.594
- U3C U4G G5C C6G U7C U10C — lower, 1.31
- U4A G8U C9U — lower, 0.0172
- U4A G5C C6A U7A C9A U10A — lower, 0.526
- G2C U3C — lower, 0.044
- G2C U3A — lower, 0.0779
- G2C U3G — lower, 0.163
- G2A U3C G5C C6U G8C C9U U10C — lower, 2.03
- G2C U3C G5A C6U U7A G8U C9A — lower, 0.0956
- U4G G5A C6G U7C U10C — lower, 2.22
- G2A U3G G5A C6G U7G C9A — lower, 0.00228
- U3G U4G G5C C6G U7C U10C — lower, 0.836
- U3C U4A C6A U7A C9A U10A — lower, 0.528
- U4A G5C C6A U7C G8A U10A — lower, 0.0584
- G2C G5A C6U U7A G8U C9A — lower, 0.0726
- U4C G5U U7C G8A U10C — lower, 1.83
- G2U U3C G5C C6A U7C G8A U10A — lower, 0.619
- U3C G5C C6G U7C U10C — lower, 1.22
- U3C U4G G5A C6G U7G C9A — lower, 0.106
- G2A U3A G5A U7C G8A U10C — lower, 2.08
- U4G G5A — lower, 0.101
- G2U U3A G5A C6U U7A G8U C9A — lower, 0.247
- G2A U3G C6A U7A C9A U10A — lower, 0.935
- U4A G5A — lower, 0.00706
- U4A G5C — lower, 0.183
- U4A G5U — lower, 0.0569
- U4A G5A C6A U7C G8A U10A — lower, 0.0681
- U3C G5C C6A U7C G8A U10A — lower, 0.0284
- U4G G5A C6A U7A C9A U10A — lower, 0.315
- G2C U3C G5U G8U C9U — lower, 0.29
- G2A U3G G5U G8U C9U — lower, 0.0993
- G2U U3G C6A U7C C9A U10C — higher, 4.84
- G2C U3A G5A U7C G8A U10C — lower, 1.93
- U4C G5C C6G U7G C9A — lower, 2.21
- G2A U3C G5U G8U C9U — lower, 0.198
- U3C U4G C6A U7A C9A U10A — lower, 0.667
- G2C C6A U7C C9A U10C — lower, 2.9
- G2A U3A G5C C6G U7C U10C — higher, 3.39
- U4C G5C C6U U7A G8U C9A — lower, 0.704
- U3C U4A G5C C6G U7C U10C — lower, 2.55
- G2U G5C C6U G8C C9U U10C — lower, 3.26
- U3C G5A C6U U7A G8U C9A — lower, 0.098
- U3G U4C G5C C6U G8C C9U U10C — lower, 1.03
- G2A U3A G5C C6A U7C G8A U10A — lower, 0.0895
- G2A C6A U7A C9A U10A — lower, 0.929
- U3G U4A C6A U7A C9A U10A — lower, 0.213
- U4A G5U C6U G8C C9U U10C — lower, 0.723
- U3G G5A C6G U7G C9A — lower, 0.0125
- U4A G5U C6G U7G C9A — lower, 0.0707
- U3A U4C G5C C6A U7C G8A U10A — lower, 0.389
- U4C G5A U7C G8A U10C — lower, 3.18
- U4A G5C C6U G8C C9U U10C — lower, 1.68
- U3A U4G G5C C6A U7C G8A U10A — lower, 0.0901
